Patent publication US20170002055A1, “Novel peptides and combination of peptides for use in immunotherapy against ovarian cancer and other cancers” (immatics biotechnologies GmbH, priority 2015, published 2017)

Target: HLA-A*02:01 (Homo sapiens, UniProt P04439, D140Y/D185E/D98H/E176V/E277Q/G131W/G231S/I119V/I121R/I166T/I218V/L300P/L318F/N151K/N90K/P208A/P217A/Q86G/Q94H/R138H/R169H/T345S)
Experiment: MHC binding assay (UV-ligand exchange, β2m ELISA, peptide exchange yield)
Details: MHC class I binding score; binding to HLA-A*02:01 ranged by peptide exchange yield (UV-ligand exchange, β2m ELISA)
How it was run: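 Binding is expressed as peptide exchange yield: stabilized MHC complexes were quantified by β2m ELISA, with a 450 nm TMB read-out on streptavidin-coated plates. Complexes came from UV-ligand exchange, where UV irradiation cleaves a photolabile peptide so the candidate peptide can load.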

Peptide exchange, “+++” (≧50 = +++):
366 (RLLDMGETDLML; listed as Homo sapiens) [compound 366], 367 (SLQNHNHQL; listed as Homo sapiens) [compound 367], 369 (GLFPEHLIDV; listed as Homo sapiens) [compound 369], 370 (SLLQDLVSV; listed as Homo sapiens) [compound 370], 378 (ALGYFVPYV; listed as Homo sapiens) [compound 378], 383 (ALLELENSVTL; listed as Homo sapiens) [compound 383], 386 (ILFRYPLTI; listed as Homo sapiens) [compound 386], 388 (SLTIDGIRYV; listed as Homo sapiens) [compound 388], 390 (ALFMKQIYL; listed as Homo sapiens) [compound 390], 391 (YVYPQRLNFV; listed as Homo sapiens) [compound 391], 394 (LLAVIGGLVYL; listed as Homo sapiens) [compound 394], 396 (ALLPDLPAL; listed as Homo sapiens) [compound 396], 397 (YLFGERLLEC; listed as Homo sapiens) [compound 397], 399 (YLFEPLYHV; listed as Homo sapiens) [compound 399], 401 (ILLDDTGLAYI; listed as Homo sapiens) [compound 401], 407 (YLMDLINFL; listed as Homo sapiens) [compound 407], 426 (RLADKSVLV; listed as Homo sapiens) [compound 426], 427 (ALLPLSPYL; listed as Homo sapiens) [compound 427], 430 (HLYSSIEHLTT; listed as Homo sapiens) [compound 430], 433 (AMLNEPWAV; listed as Homo sapiens) [compound 433], 436 (HLAEVSAEV; listed as Homo sapiens) [compound 436], 437 (SMAPGLVIQAV; listed as Homo sapiens) [compound 437], 439 (YLLQEIYGI; listed as Homo sapiens) [compound 439], 441 (ALLENPKMEL; listed as Homo sapiens) [compound 441], 442 (GLLGGGGVLGV; listed as Homo sapiens) [compound 442], 444 (GLLRDEALAEV; listed as Homo sapiens) [compound 444], 448 (NLLETKLQL; listed as Homo sapiens) [compound 448]

Peptide exchange, “++” (≧20% = ++):
372 (TMLLNIPLV; listed as Homo sapiens) [compound 372], 373 (SLLEDKGLAEV; listed as Homo sapiens) [compound 373], 374 (FLLQQHLISA; listed as Homo sapiens) [compound 374], 375 (SLTETIEGV; listed as Homo sapiens) [compound 375], 376 (AMFESSQNVLL; listed as Homo sapiens) [compound 376], 377 (FLLDSSASV; listed as Homo sapiens) [compound 377], 379 (IMEGTLTRV; listed as Homo sapiens) [compound 379], 380 (TLIEDEIATI; listed as Homo sapiens) [compound 380], 381 (FIDEAYVEV; listed as Homo sapiens) [compound 381], 382 (ALQNYIKEA; listed as Homo sapiens) [compound 382], 385 (SLLEQGLVEA; listed as Homo sapiens) [compound 385], 389 (LLADVTHLL; listed as Homo sapiens) [compound 389], 392 (ALLHPQGFEV; listed as Homo sapiens) [compound 392], 393 (GLLDTQTSQVLTA; listed as Homo sapiens) [compound 393], 398 (KLLEEDGTIITL; listed as Homo sapiens) [compound 398], 400 (SLLTEQDLWTV; listed as Homo sapiens) [compound 400], 402 (VLFSGALLGL; listed as Homo sapiens) [compound 402], 403 (KLYDRILRV; listed as Homo sapiens) [compound 403], 405 (ALYDVFLEV; listed as Homo sapiens) [compound 405], 408 (VLDDSIYLV; listed as Homo sapiens) [compound 408], 409 (LLDAMNYHL; listed as Homo sapiens) [compound 409], 412 (YLDDLNEGVYI; listed as Homo sapiens) [compound 412], 428 (KLGHTDILVGV; listed as Homo sapiens) [compound 428], 429 (GLVNDLARV; listed as Homo sapiens) [compound 429], 431 (SLVNVVPKL; listed as Homo sapiens) [compound 431], 432 (TLIEESAKV; listed as Homo sapiens) [compound 432], 434 (KVSNSGITRV; listed as Homo sapiens) [compound 434], 440 (ALADGVTMQV; listed as Homo sapiens) [compound 440], 447 (QLVPALAKV; listed as Homo sapiens) [compound 447]

Peptide exchange, “++++” (≧75% = ++++):
371 (FLQAHLHTA; listed as Homo sapiens) [compound 371], 387 (ALFQATAEV; listed as Homo sapiens) [compound 387], 438 (KLLPLAGLYL; listed as Homo sapiens) [compound 438]
